This passage reports EC50 of SHP-2 recruitment, PD-1 reporter Jurkat cells, Ig-tethered test article on anti-human IgG coated plates results from patent publication US20240052034A1.

In the experiment the target is PD-1 on PD-1 reporter Jurkat cells (UniProt Q15116). Briefly: cell-based or functional assay.
Sequence of PD-1 on PD-1 reporter Jurkat cells (Q15116 25-288 limits assumed): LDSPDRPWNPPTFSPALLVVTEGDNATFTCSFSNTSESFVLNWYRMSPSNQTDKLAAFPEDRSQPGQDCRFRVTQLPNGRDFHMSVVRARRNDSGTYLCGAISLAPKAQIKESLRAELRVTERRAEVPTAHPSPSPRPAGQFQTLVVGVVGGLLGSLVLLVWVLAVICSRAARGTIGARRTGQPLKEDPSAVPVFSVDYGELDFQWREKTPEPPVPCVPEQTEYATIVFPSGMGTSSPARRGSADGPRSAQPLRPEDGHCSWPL

For LY3462817 (antibody), the EC50 of SHP-2 recruitment, PD-1 reporter Jurkat cells, Ig-tethered test article on anti-human IgG coated plates was found to be 5.69 nM.
